Test [1] deals with fluorescein-labeled AID peptide, fluorescein-…-COOH. Put plainly: fluorescence polarization, β protein titrated onto 0.5 nM fluorescein-labeled AID peptide. For orientation: Fluorescence polarisation rises when a labelled molecule tumbles more slowly, as on binding a larger partner.
Test [2] has the same target. Put plainly: fluorescence polarization, equilibrium isotherm titration.
The target is the same in test [3]. Kind of test: fluorescence polarization.
Test [4] concerns the target CaV1.2 (α1C) subunit expressed in Xenopus laevis oocytes by mRNA injection. Kind of test: cell-based or functional assay.
Test [5] has as its target T1, full-length VDCC β2a mutant M246 changed to alanine (rabbit, UniProt P54288-2 1-606).
T1 construct: mature
Put plainly: fluorescence polarization.

Test [6] addresses T2, full-length VDCC β2a mutant L392 changed to alanine (rabbit, UniProt P54288-2 1-606).
T2 construct: mature
Kind of test: fluorescence polarization.

fluorescein = fluorescein label

Turning to “VDCC β2a linkerless core (domain I plus domain II, removable linker core after TEV digestion) (from UniProt P54288 51-172; P54288 230-449)”, the Kd (commonly the concentration at which binding is half-saturated) is 6.6 nM in test [1] and 6 to 15 nM in test [2].

Regarding “full-length VDCC β2a subunit (rabbit, recombinant, histidine tag removed by TEV protease) (from UniProt P54288 44-632)”, the Kd in test [3] is 26 nM; in test [1], 16.1 nM; in test [2], 6 to 15 nM.

With “full-length rat VDCC β3 subunit protein (recombinant, tag removed) (from UniProt P54287 1-484)”, in test [4], the Steady-state activation, V1/2 (mV) came out at 10 mV and the Steady-state activation, k (mV) worked out at 10.6 mV.

In test [4], “full-length β2a protein as injected into oocytes (P122R) (from UniProt P54288 1-606)” displayed a Current amplitude (A), I at 20 mV of -0.71; a Current amplitude (A), I at 30 mV of -0.49; a Steady-state activation, V1/2 (mV) of 3.68 mV; a Steady-state activation, k (mV) of 8.48 mV.

In test [4], “β2a core protein as injected into oocytes (P122R) (from UniProt P54288 25-422)” gave a Current amplitude (A), I at 20 mV of -0.87; a Current amplitude (A), I at 30 mV of -0.7; a Steady-state activation, V1/2 (mV) of 6.84 mV; a Steady-state activation, k (mV) of 8.43 mV.

In test [4], “β2a domain I + domain II prepared by proteolysis of full length protein and subsequent purification (injected) (from UniProt P54288 25-146; P54288 204-423)” gave a Current amplitude (A), I at 20 mV of -0.44; a Current amplitude (A), I at 30 mV of -0.34; a Steady-state activation, V1/2 (mV) of 3.24 mV; a Steady-state activation, k (mV) of 9.49 mV.

For the molecule “β2a domain I protein as injected into oocytes (P122R) (from UniProt P54288 25-146)”, in test [4], the Current amplitude (A), I at 20 mV is -0.16; the Current amplitude (A), I at 30 mV is -0.18; the Steady-state activation, V1/2 (mV) was 24 mV; the Steady-state activation, k (mV) was 12.2 mV.

Consider “β3 core protein (from UniProt P54287 21-370)”, for which, in test [4], the Current amplitude (A), I at 20 mV was -0.45; the Current amplitude (A), I at 30 mV is -0.41; the Steady-state activation, V1/2 (mV) stood at 10.7 mV; the Steady-state activation, k (mV) is 10.1 mV.

In test [4], “β3 subunit expressed in oocytes by mRNA injection” had a Current amplitude (A), I at 20 mV of -0.56; a Current amplitude (A), I at 30 mV of -0.48; a Steady-state activation, V1/2 (mV) of 10.7 mV; a Steady-state activation, k (mV) of 9.08 mV.

B1: fluorescein-labeled AID peptide, fluorescein-GGQQLEEDLRGYNSWITQGE-COOH (peptide)
peptide: fluorescein-GGQQLEEDLRGYNSWITQGE-OH
notes: also called labeled peptide; WT
Regarding B1, the equilibrium dissociation constant (Kd) in test [5] was found to be 1700 nM; in test [6] it was 340 nM.

These data come from patent publication US20050288489A1 (published 2005).
